This experiment deals with human recombinant eL42-Δ(GGQTK) variant, His-tagged (human, UniProt P83881 1-106, Δ(GGQTK), residues 49-GGQTK-53 deleted). As to the kind of experiment: SPR; Biacore 3000; His-tagged eL42 species immobilised by amine coupling on a CM5 chip; eRF1 or EF-3 as analyte; 25°C, HBS-EP (10 mM HEPES pH 7.4, 150 mM NaCl, 3 mM EDTA, 0.005% P20), 5 µL/min; 1:1 Langmuir fit; mean of 3 experiments. Conditions: both partners purified.

B1: elongation factor 3 (EF-3) from S. cerevisiae, His-tagged (natural protein, UniProt P16521 1-1044, looked up)
chain: MSDSQQSIKVLEELFQKLSVATADNRHEIASEVASFLNGNIIEHDVPEHFFGELAKGIKDKKTAANAMQAVAHIANQSNLSPSVEPYIVQLVPAICTNAGNKDKEIQSVASETLISIVNAVNPVAIKALLPHLTNAIVETNKWQEKIAILAAISAMVDAAKDQVALRMPELIPVLSETMWDTKKEVKAAATAAMTKATETVDNKDIERFIPSLIQCIADPTEVPETVHLLGATTFVAEVTPATLSIMVPLLSRGLNERETGIKRKSAVIIDNMCKLVEDPQVIAPFLGKLLPGLKSNFATIADPEAREVTLRALKTLRRVGNVGEDDAIPEVSHAGDVSTTLQVVNELLKDETVAPRFKIVVEYIAAIGADLIDERIIDQQAWFTHITPYMTIFLHEKKAKDILDEFRKRAVDNIPVGPNFDDEEDEGEDLCNCEFSLAYGAKILLNKTQLRLKRARRYGICGPNGCGKSTLMRAIANGQVDGFPTQEECRTVYVEHDIDGTHSDTSVLDFVFESGVGTKEAIKDKLIEFGFTDEMIAMPISALSGGWKMKLALARAVLRNADILLLDEPTNHLDTVNVAWLVNYLNTCGITSITISHDSVFLDNVCEYIINYEGLKLRKYKGNFTEFVKKCPAAKAYEELSNTDLEFKFPEPGYLEGVKTKQKAIVKVTNMEFQYPGTSKPQITDINFQCSLSSRIAVIGPNGAGKSTLINVLTGELLPTSGEVYTHENCRIAYIKQHAFAHIESHLDKTPSEYIQWRFQTGEDRETMDRANRQINENDAEAMNKIFKIEGTPRRIAGIHSRRKFKNTYEYECSFLLGENIGMKSERWVPMMSVDNAWIPRGELVESHSKMVAEVDMKEALASGQFRPLTRKEIEEHCSMLGLDPEIVSHSRIRGLSGGQKVKLVLAAGTWQRPHLIVLDEPTNYLDRDSLGALSKALKEFEGGVIIITHSAEFTKNLTEEVWAVKDGRMTPSGHNWVSGQGAGPRIEKKEDEEDKFDAMGNKIAGGKKKKKLSSAELRKKKKERMKKKKELGDAYVSSDEEF
notes: S. cerevisiae elongation factor 3; The expression strain was a gift of Maria Mateyak; also called eEF-3; yeast EF-3; source: E. coli TKBL40 (BL21, His-tagged eEF-3 in pET11a), purified (His GraviTrap)
In the case of B1, the Kd was found to be 9.2 µM.
